Key:
[1] = biological target: CMV AD169 envelope glycoprotein B (gB) (human cytomegalovirus strain AD169, UniProt P06473 32-906); experiment: cell-based or functional assay
[2] = biological target: T1, AD4 polypeptide (cloned AD4 fragment of CMV AD169 envelope glycoprotein B) (human cytomegalovirus strain AD169, UniProt P06473 112-438); experiment: SPR (Biacore T200), antibody captured on anti-human IgG CM5 chip, AD4 polypeptide as analyte, 1:1 model
T1 construct: also called antigenic domain 4

B1: C6 (antibody, V domains shown)
VH: QVQLQESGPGLVKPLETLSLTCTVSGGSISSGSFYWTWIRQHPGKGLEWIGYIHSSGTTYYNPSLKSRLNISRDTSKNQFTLKLSSVTAADTAVYYCAKEIIQWPRRWFDPWGQGTLVTVSS
VL: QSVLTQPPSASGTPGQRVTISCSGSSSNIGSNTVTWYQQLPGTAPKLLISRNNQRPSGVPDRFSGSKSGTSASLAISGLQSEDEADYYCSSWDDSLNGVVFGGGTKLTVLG
notes: Human IgG, transiently expressed in HEK293
In the case of B1, the “CMV Neutr. IC50” value [1] is reported as < 2 µg/mL, the Kd [2] is reported as 2.5 nM and the koff [2] is reported as 0.00138 s⁻¹. For the same binder, the kon [2] was 554000 M⁻¹ s⁻¹.

B2: C7 (antibody, V domains shown)
VH: QVQLQESGPGLVKPLETLSLTCTVSGGSISSGSFYWTWIRQHPGKGLEWIGYIHSSGTTYYNPSLKSRLNISRDTSKNQFTLKLSSVTAADTAVYYCAKEIIQWPRRWFDPWGQGTLVTVSS
VL: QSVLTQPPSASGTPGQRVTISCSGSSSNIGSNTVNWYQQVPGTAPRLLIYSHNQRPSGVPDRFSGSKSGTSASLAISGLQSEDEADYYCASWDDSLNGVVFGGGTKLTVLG
notes: as for B1
With B2 the “CMV Neutr. IC50” value [1] was > 50 µg/mL, the Kd [2] was 7.76 nM and the koff [2] was 0.00604 s⁻¹. The kon [2] was 779000 M⁻¹ s⁻¹.

B3: C10 (antibody, V domains shown)
VH: QVQLQESGPGLVKPLETLSLTCTVSGGSISSGSFYWTWIRQHPGKGLEWIGYIHSSGTTYYNPSLKSRLNISRDTSKNQFTLKLSSVTAADTAVYYCAKEIIQWPRRWFDPWGQGTLVTVSS
VL: QSVLTQPPSASGTPGQRVTISCSGSSSNIGSNYIDWYQQLPGTGPQLLTYRNNQRPSGVPDRFSGSKSGTSASLAISGLRSEDEADYYCASWDDSLSSPVFGGGTKLTVLG
notes: as for B1
In the case of B3, the “CMV Neutr. IC50” value [1] is reported as > 50 µg/mL, the Kd [2] is reported as 3.97 nM and the koff [2] is reported as 0.00197 s⁻¹. It also gave a kon [2] of 496000 M⁻¹ s⁻¹.

B4: C11 (antibody, V domains shown)
VH: EVQLLESGGGLIQPGGSLRLSCVASGFTFTRHAINWVRQAPGKGLEWVSAISGSGSSTYYADSVKGRFTISRDNAKNTLYLQMNRLRVEDTAVYYCAKDKDYGMVAATPDAFDIWGQGTMVTVSS
VL: QSVLTQPPSVSAAPGQKVTISCSGSRSNIAKNYVYWYQQLPGTAPKLLIYDTNKRPSGIPDRFSGSKSGTSATLAITGLQTGDEADYYCGTWDSSLKTAIFFGGGTTVTVLG
notes: as for B1
B4 was tested, and the “CMV Neutr. IC50” value [1] was > 50 µg/mL, the Kd [2] was 5.67 nM and the koff [2] was 0.00109 s⁻¹. For the same binder, the kon [2] was 192000 M⁻¹ s⁻¹.

B5: C12 (antibody, V domains shown)
VH: QVQLQESGPGLVKPLETLSLTCTVSGGSIRGGDYWWTWVRQPPGKGLEWLGYIYRTGSTYYNPSLKSRLTISLDTSKNHFSLKLASATAADTAVYYCARDPGDDSGGNSGLDYWGQGVLVSVSS
VL: QSMLTQPPSVSAAPGQKVIISCSGSSSNIGNNFVNWYQKFPGTAPKLLIYDNDKRPSGIPDRFSGSKSGTSATLGITGLQTGDEAEYYCGTWDSSLTAGVFGGGTTLTVLG
notes: as for B1
B5 was tested, and the “CMV Neutr. IC50” value [1] was > 50 µg/mL, the Kd [2] was 3.27 nM and the koff [2] was 0.00369 s⁻¹. It also gave a kon [2] of 1.13e+06 M⁻¹ s⁻¹.

B6: C15 (antibody, V domains shown)
VH: EMQLLESGGGLVQPGGSLRVSCAASGFTFSSHAMSWVRQAPGKGLEWVSSISRSGDNTFYADSVKGRFTISRDNIKSTVYLQMNSLRAEDTAVYFCASRYTEGDSVWYFDVWGRGTLVTVSS
VL: EVVLTQSPATLSVSAGDRATLSCRASQSVSRDLAWYQQKPGQAPRLLIYGASTRATDIPVRFSGSGSGTEFSLTISSLQSEDFAVYYCHQYKHWPRTFGQGTKVEIKR
notes: as for B1
With B6 the “CMV Neutr. IC50” value [1] was < 0.3 µg/mL, the Kd [2] was 6.44 nM and the koff [2] was 0.00234 s⁻¹. For the same binder, the kon [2] was 363000 M⁻¹ s⁻¹.

B7: C3 (antibody, V domains shown)
VH: QVQLQESGPGLVKPLETLSLTCTVSGGSISSGSFYWTWIRQHPGKGLEWIGYIHSSGTTYYNPSLKSRLNISRDTSKNQFTLKLSSVTAADTAVYYCAKEIIQWPRRWFDPWGQGTLVTVSS
VL: QSMLTQPPSVSAAPGQKVIISCSGSSSNIGNNYVNWYQQLPGTAPKLLIYDNDKRPSGIPDRFSGSKSGTSATLGITGLQTGDEADYYCGTWDSTLTAGVFGGGTKLTVLG
notes: as for B1
B7 was tested, and the “CMV Neutr. IC50” value [1] was < 0.07 µg/mL, the Kd [2] was 0.549 nM and the koff [2] was 0.00068 s⁻¹. It also gave a kon [2] of 1.24e+06 M⁻¹ s⁻¹.

B8: C4 (antibody, V domains shown)
VH: QVQLQESGPGLVKPLETLSLTCTVSGGSISSGSFYWTWIRQHPGKGLEWIGYIHSSGTTYYNPSLKSRLNISRDTSKNQFTLKLSSVTAADTAVYYCAKEIIQWPRRWFDPWGQGTLVTVSS
VL: QSVLTQPPSVSAAPGQKVIISCSGSGSNIGSHYVNWYQQLPGAAPKLLIYDNDKRPSGIPDRFSGSKSGTSATLAITGLQTGDEADYHCATWDGTLTAGVFGGGTKLTVLG
notes: as for B1
B8 was tested, and the “CMV Neutr. IC50” value [1] was < 0.04 µg/mL, the Kd [2] was 0.695 nM and the koff [2] was 0.00063 s⁻¹. For the same binder, the kon [2] was 908000 M⁻¹ s⁻¹.

B9: C5 (antibody, V domains shown)
VH: QVQLQESGPGLVKPLETLSLTCTVSGGSISSGSFYWTWIRQHPGKGLEWIGYIHSSGTTYYNPSLKSRLNISRDTSKNQFTLKLSSVTAADTAVYYCAKEIIQWPRRWFDPWGQGTLVTVSS
VL: QSMLTQPPSVSAAPGQKVIISCSGSSSNIGNNFVNWYQKFPGTAPKLLIYDNDKRPSGIPDRFSGSKSGTSATLGITGLQTGDEAEYYCGTWDSSLTAGVFGGGTTLTVLG
notes: as for B1
For B9, the “CMV Neutr. IC50” value [1] was < 6 µg/mL, the Kd [2] was 0.278 nM and the koff [2] was 0.000201 s⁻¹. The kon [2] was 721000 M⁻¹ s⁻¹.

B10: C8 (antibody, V domains shown)
VH: QVQLQESGPGLVKPLETLSLTCTVSGGSISSGSFYWTWIRQHPGKGLEWIGYIHSSGTTYYNPSLKSRLNISRDTSKNQFTLKLSSVTAADTAVYYCAKEIIQWPRRWFDPWGQGTLVTVSS
VL: QSVLTQPPSVSAAPGQKVTISCSGSRSNIGKNYVYWYQQLPGTAPKLLIYDNNKRPSGIPDRFSGSKSGTSATLAITGLQTGDEADYYCGTWDSSLKTGIFFGGGTKLTVLG
notes: as for B1
For B10, the “CMV Neutr. IC50” value [1] was > 50 µg/mL, the Kd [2] was 4.49 nM and the koff [2] was 0.00186 s⁻¹. For the same binder, the kon [2] was 414000 M⁻¹ s⁻¹.

B11: C9 (antibody, V domains shown)
VH: QVQLQESGPGLVKPLETLSLTCTVSGGSISSGSFYWTWIRQHPGKGLEWIGYIHSSGTTYYNPSLKSRLNISRDTSKNQFTLKLSSVTAADTAVYYCAKEIIQWPRRWFDPWGQGTLVTVSS
VL: QSVLTQPPSVSAAPGQKVTISCSGSRSNIAKNYVYWYQQLPGTAPKLLIYDTNKRPSGIPDRFSGSKSGTSATLAITGLQTGDEADYYCGTWDSSLKTAIFFGGGTTVTVLG
notes: as for B1
In the case of B11, the “CMV Neutr. IC50” value [1] is reported as > 50 µg/mL, the Kd [2] is reported as 3.95 nM and the koff [2] is reported as 0.00238 s⁻¹. The kon [2] was 602000 M⁻¹ s⁻¹.

Source: patent US20150110794A1 (CELL SIGNALING TECHNOLOGY, published 2015)
